The target of the assay is Quiescin-sulfhydryl oxidase (QSOX), recombinant human (human) (UniProt O00391). Kind of assay: SPR; Biacore 3000; […]; 30 ul/min in PBS, 0.05% Tween 20, 3 mM EDTA at 25°C; 1:1 Langmuir model; […].

This passage reports Kd, koff and kon results from article PMC5270677.

Chain of Quiescin-sulfhydryl oxidase (QSOX), recombinant human (human) (O00391 30-709): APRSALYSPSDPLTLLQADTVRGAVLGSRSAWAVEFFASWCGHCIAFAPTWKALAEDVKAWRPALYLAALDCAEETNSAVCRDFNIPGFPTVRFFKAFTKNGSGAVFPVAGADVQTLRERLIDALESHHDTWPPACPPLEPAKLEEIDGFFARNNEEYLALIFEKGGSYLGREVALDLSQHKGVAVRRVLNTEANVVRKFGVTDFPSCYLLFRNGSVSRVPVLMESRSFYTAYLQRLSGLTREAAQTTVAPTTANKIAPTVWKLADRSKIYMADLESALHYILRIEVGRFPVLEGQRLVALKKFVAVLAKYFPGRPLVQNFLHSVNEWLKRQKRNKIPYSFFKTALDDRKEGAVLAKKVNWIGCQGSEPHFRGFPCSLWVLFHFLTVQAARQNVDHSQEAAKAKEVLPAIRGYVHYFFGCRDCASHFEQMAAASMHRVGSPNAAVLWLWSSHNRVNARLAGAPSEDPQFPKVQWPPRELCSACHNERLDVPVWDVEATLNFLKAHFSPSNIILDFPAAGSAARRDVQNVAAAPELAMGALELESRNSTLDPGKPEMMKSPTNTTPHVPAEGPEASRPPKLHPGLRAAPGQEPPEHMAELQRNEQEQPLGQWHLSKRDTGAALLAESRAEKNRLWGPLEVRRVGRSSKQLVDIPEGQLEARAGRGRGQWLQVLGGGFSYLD
Chain of unfolded N-terminal region of human PrP, HuPrP(23-145) (P04156 23-145): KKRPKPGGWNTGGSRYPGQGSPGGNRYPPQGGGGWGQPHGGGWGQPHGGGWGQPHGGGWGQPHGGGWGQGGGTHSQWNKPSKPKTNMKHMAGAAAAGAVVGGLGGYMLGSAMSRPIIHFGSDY

For “unfolded N-terminal region of human PrP, HuPrP(23-145) (from UniProt P04156 23-145) (domain or fragment)”, the Kd was 3.6 nM, the koff is 4.78e-05 s⁻¹ and the kon came to 13200 M⁻¹ s⁻¹.

In general, Kd refers to the equilibrium constant for the complex coming apart. In general, koff refers to the first-order rate constant of dissociation. What is called kon is the rate constant with which the complex forms.
